Numbering of substitutions follows the chain as printed. Blank lines part the entries; values can stand above or below the binder they belong to.
Key:
[1] = molecular target: T1, human MARCO (R&D biosystems), recombinant, coated in the LDL competition assay (human, UniProt Q9UEW3 70-520, limits assumed); experiment: LDL competition on coated human MARCO (MSD), competitor biotinylated hLDL
T1 construct: Bought protein
T1 sequence (looked up): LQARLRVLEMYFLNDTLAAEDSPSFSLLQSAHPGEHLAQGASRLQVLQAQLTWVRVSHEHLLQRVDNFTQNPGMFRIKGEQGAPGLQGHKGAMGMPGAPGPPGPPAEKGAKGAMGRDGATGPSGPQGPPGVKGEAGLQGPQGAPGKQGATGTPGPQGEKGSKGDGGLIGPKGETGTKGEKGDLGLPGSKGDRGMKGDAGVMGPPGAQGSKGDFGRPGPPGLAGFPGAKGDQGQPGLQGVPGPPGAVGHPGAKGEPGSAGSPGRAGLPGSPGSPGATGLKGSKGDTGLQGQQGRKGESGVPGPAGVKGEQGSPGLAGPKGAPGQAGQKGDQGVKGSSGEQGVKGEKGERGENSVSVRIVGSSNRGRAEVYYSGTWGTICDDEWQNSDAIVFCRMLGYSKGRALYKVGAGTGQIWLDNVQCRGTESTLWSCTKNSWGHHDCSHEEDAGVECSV
Description: (§1) A high-binding, 96-well MSD plate was coated with 4 μg/ml mouse MARCO or 4 μg/ml human MARCO (R&D biosystems). After the plate was blocked with PBST and 5% BSA for an hour, titrated anti-mouse or anti-human MARCO antibodies were added to the plate and incubated for 30 minutes. Biotinylated hLDL (860 pM or 2 μg/ml) were added to the antibody, and the antibody/LDL mixture was incubated for an hour to allow the mixture to reach binding equilibrium. The plates were washed and bound biotinylated LDL was detected with Sulfo-tagged streptavidin that generates an electrocheminlumenscent signal when read buffer is added and electricity is applied to the electrodes in the MSD plate. IC50's were calculated using a 4-parameter curve fit in GraphPad Prism software.
The newly generated rat hybridoma anti-human MARCO antibodies were characterized as previously described. Neither antibody bound to MSR1. Binding kinetics were determined via Multi Cycle Kinetics analysis using the huMARCO antigen as previously described.

[2] = molecular target: T2, mouse MARCO (R&D biosystems), recombinant, coated in the LDL competition assay (mouse, UniProt Q60754 70-518, limits assumed); experiment: LDL competition on coated mouse MARCO (MSD), competitor biotinylated hLDL
T2 sequence (looked up): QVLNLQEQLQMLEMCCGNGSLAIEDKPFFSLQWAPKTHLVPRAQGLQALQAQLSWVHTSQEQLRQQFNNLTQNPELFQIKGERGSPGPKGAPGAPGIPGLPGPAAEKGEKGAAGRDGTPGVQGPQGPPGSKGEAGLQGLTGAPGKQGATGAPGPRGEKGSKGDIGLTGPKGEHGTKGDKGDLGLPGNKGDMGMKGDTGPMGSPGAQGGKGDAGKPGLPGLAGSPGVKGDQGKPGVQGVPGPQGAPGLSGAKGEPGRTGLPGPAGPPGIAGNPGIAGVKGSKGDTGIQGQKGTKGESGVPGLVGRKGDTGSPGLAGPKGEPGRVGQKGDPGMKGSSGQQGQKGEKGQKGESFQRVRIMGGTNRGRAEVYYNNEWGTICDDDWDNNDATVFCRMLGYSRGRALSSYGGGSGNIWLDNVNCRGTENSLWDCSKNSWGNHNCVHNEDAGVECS
Description: as §1

[3] = molecular target: T3, N-terminally polyhistidine tagged human MARCO ECD (147-520), recombinant (human, UniProt Q9UEW3 147-520); experiment: ELISA on recombinant human MARCO, 2 mM EDTA
T3 construct: also called PI-RG-3000; recombinant human MARCO; not shown: N-terminal polyhistidine tag
T3 sequence: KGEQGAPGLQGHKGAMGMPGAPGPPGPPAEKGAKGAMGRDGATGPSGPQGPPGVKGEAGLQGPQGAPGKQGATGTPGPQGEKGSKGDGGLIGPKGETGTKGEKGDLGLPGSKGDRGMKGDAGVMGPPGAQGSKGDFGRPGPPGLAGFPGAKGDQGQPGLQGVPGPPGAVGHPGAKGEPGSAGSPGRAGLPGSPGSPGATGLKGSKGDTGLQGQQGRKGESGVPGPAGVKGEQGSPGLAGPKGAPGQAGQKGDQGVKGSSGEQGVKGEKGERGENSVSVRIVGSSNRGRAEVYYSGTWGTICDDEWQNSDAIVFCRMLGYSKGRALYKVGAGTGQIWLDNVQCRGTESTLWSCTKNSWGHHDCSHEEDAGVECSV
Description: After the plates were incubated at room temperature for 1 hour or 4° C. overnight, the plates were wash 3 times with ELISA wash buffer (PBS/0.05% TWEEN-20), then hybridoma supernatant (1:5 dilution) or purified antibody (1 ug) was diluted in DPBS/Ca2+/2% FBS, DPBS without Ca2+/2 mM EDTA/2% FBS, DPBS without Ca2+/10 mM EDTA/2% FBS, and DPBS without Ca2+/50 mM EDTA/2% FBS. Plates again were incubated at room temperature for 1 hour.

[4] = molecular target: T4, Human Macrophage Receptor with Collagenous Structure (MARCO), full length, on cells (human, UniProt Q9UEW3 1-520); experiment: flow cytometry, cells overexpressing human MARCO
T4 construct: the cell type is named under assay; also called huMARCO; HuMARCO
T4 sequence: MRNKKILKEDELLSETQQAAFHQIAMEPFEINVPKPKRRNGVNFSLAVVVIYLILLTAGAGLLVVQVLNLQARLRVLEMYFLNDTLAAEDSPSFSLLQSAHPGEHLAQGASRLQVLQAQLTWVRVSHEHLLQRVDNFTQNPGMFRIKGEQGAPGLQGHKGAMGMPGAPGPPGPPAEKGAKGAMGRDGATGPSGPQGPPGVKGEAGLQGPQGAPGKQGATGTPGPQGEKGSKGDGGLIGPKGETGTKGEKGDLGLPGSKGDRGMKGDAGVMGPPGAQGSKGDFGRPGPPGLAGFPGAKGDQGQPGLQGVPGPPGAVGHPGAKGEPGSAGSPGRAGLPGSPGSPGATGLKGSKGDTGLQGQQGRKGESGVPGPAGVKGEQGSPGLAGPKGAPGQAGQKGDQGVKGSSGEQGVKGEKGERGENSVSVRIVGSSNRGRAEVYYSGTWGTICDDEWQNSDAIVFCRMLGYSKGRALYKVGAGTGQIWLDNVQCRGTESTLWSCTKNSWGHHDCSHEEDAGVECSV

- EC50 [1]: 8.2 nM
B1: PI-HX-3061 (antibody, rat IgG2a)
heavy: EVQLVESGGGLVQPGSSLKLSCVASKFTFSNYGMNWIRQAPKKGLEWIALIYYNSNNKYYADSVKGRFTISRDNSKNTLYLEMNSLRSEDTAMYYCAKSLTGGSDYFDSWGQGVMVTVSSAETTAPSVYPLAPGTALKSNSMVTLGCLVKGYFPEPVTVTWNSGALSSGVHTFPAVLQSGLYTLTSSVTVPSSTWPSQTVTCNVAHPASSTKVDKKIVPRNCGGDCKPCICTGSEVSSVFIFPPKPKDVLTITLTPKVTCVVVDISQDDPEVHFSWFVDDVEVHTAQTRPPEEQFNSTFRSVSELPILHQDWLNGRTFRCKVTSAAFPSPIEKTISKPEGRTQVPHVYTMSPTKEEMTQNEVSITCMVKGFYPPDIYVEWQMNGQPQENYKNTPPTMDTDGSYFLYSKLNVKKEKWQQGNTFTCSVLHEGLHNHHTEKSLSHSP
light: DVQMTQSPSYLAASPGESVSISCKASKSIGTFLAWYQEKPEKTNKLLIYSGSTLQSGTPSRFSGSGSGTDFTLTIRNLEPEDFAVYYCQQHDEYPFTFGSGTKLEIKRADAAPTVSIFPPSTEQLATGGASVVCLMNNFYPRDISVKWKIDGTERRDGVLDSVTDQDSKDSTYSMSSTLSLTKADYESHNLYTCEVVHKTSSSPVVKSFNRNEC
notes: Parental rat hybridoma, rat IgG2a; cross reactive with human and mouse MARCO

- EC50 [2]: 0.25 nM
B2: PI-HX-3021 (antibody, V domains shown)
VH: QVRLVQSGTALVRPGASVRMSCTASGYSFTDYWVSWVKQSHGQSLEWIGEIYPNSGTTNFNEKFEGKATLTVDKSTSTAYMELSRLTSEDSAIYYCTGEGTFDYWGQGVMVTVSS
VL: EIVLTQSPTTMAASPGEKVTITCRPSSSLSNMHWFQQKSGTSPKPWIYDTSKLASGVPDRFSGSGSGTSYSLTISSMEAEDAATYYCLQRSSYPPTFGAGTKLELK
notes: Rat IgG2a hybridoma antibody; Not the effector dead PI-3021; also called PI-3007 (name of the recombinant form)

- EC50 [2]: 0.34 nM
B3: PI-HX-3016 (antibody, rat IgG1, V domains shown)
VH: EVQLVESGGGLVKPGASLKLSCVASGFTFSDDWMNWVRQTPGKAMEWIGDIKYDGSYTNYVPSLKNRLTISRDNAKNTLYLQMTNVRSEDTATYYCTSGGVFDYWGQGVMVTVSS
VL: B2 VL with T5S, P25A, L29V, N31Y, S92G, L105V
notes: Rat IgG1 hybridoma antibody

- ELISA signal (A450) [3]: 0.0678
- EC50 [1]: 6.2 nM
B4: PI-HX-3031 (antibody)
heavy: QVQLKESGPGLVQPSQTLSLTCTVSGFSLTSYHVSWVRQPPGKGLEWMGAIWTGGSIAYNSLLKSRLSISRDTSKSQVFLKMNSLQTEDTATYYCARDLSDYYSSYTSFDYWGQGVMVTVSTAETTAPSVYPLAPGTALKSNSMVTLGCLVKGYFPEPVTVTWNSGALSSGVHTFPAVLQSGLYTLTSSVTVPSSTWSSQAVTCNVAHPASSTKVDKKIVPRECNPCGCTGSEVSSVFIFPPKTKDVLTITLTPKVTCVVVDISQNDPEVRFSWFIDDVEVHTAQTHAPEKQSNSTLRSVSELPIVHRDWLNGKTFKCKVNSGAFPAPIEKSISKPEGTPRGPQVYTMAPPKEEMTQSQVSITCMVKGFYPPDIYTEWKMNGQPQENYKNTPPTMDTDGSYFLYSKLNVKKETWQQGNTFTCSVLHEGLHNHHTEKSLSHSP
light: DIQMTQSPASLSTSLGETVSIECLASEGISNDLAWYQQKSGKSPQLLIYAASRLQDGVPSRFSGSGSGTRYSLKISGMQPEDEADYFCQQSYKYPLTFGSGTKLEIKRADAAPTVSIFPPSTEQLATGGASVVCLMNNFYPRDISVKWKIDGTERRDGVLDSVTDQDSKDSTYSMSSTLSLTKADYESHNLYTCEVVHKTSSSPVVKSFNRNEC
notes: Parental rat hybridoma, rat IgG2a

- ELISA signal (A450) [3]: 0.0595
B5: PI-HX-3043 (antibody, rat IgG2a)
heavy: QVNLLQSRAALVKPGASVKLSCKASGYTFTDYYLHWVKQSHAKSLEWIGYINPNNAYTSYNEKFKSKATLTVDKSTNTAYMELSRLTSADSATYYCARDTTDYYNLHFAYWGQGTLVTVSSAETTAPSVYPLAPGTALKSNSMVTLGCLVKGYFPEPVTVTWNSGALSSGVHTFPAVLQSGLYTLTSSVTVPSSTWSSQAVTCNVAHPASSTKVDKKIVPRECNPCGCTGSEVSSVFIFPPKTKDVLTITLTPKVTCVVVDISQNDPEVRFSWFIDDVEVHTAQTHAPEKQSNSTLRSVSELPIVHRDWLNGKTFKCKVNSGAFPAPIEKSISKPEGTPRGPQVYTMAPPKEEMTQSQVSITCMVKGFYPPDIYTEWKMNGQPQENYKNTPPTMDTDGSYFLYSKLNVKKETWQQGNTFTCSVLHEGLHNHHTEKSLSHSP
light: B4 light with T13A, A25T, A50D, Q55E, P80T
notes: as for B4

- EC50 [4]: 0.86 nM
B6: PI-3015-AB (antibody, human IgG1, kappa)
heavy: not shown
light: DIQMTQSPSSLSASVGDRVTITCRASEGISNDLAWYQQKPGKAPKLLIYAASRLQSGVPSRFSGSGSGTDYTLTISSMQPEDFATYYCQQSYKYPLTFGQGTKLEIKRTVAAPSVFIFPPSDEQLKSGTASVVCLLNNFYPREAKVQWKVDNALQSGNSQESVTEQDSKDSTYSLSSTLTLSKADYEKHKVYACEVTHQGLSSPVTKSFNRGEC

- EC50 [4]: 0.68 nM
B7: PI-3010-AB (antibody, human IgG1, kappa)
heavy: not shown
light: DIQMTQSPASLSTSLGETVSIECLASEGISNDLAWYQQKSGKSPQLLIYAASRLQDGVPSRFSGSGSGTRYSLKISGMQPEDEADYFCQQSYKYPLTFGSGTKLEIKRTVAAPSVFIFPPSDEQLKSGTASVVCLLNNFYPREAKVQWKVDNALQSGNSQESVTEQDSKDSTYSLSSTLTLSKADYEKHKVYACEVTHQGLSSPVTKSFNRGEC

Source: patent US20220153832A1 (PIONYR IMMUNOTHERAPEUTICS, published 2022)
